Source: US20230265148A1
“And” between values parts separate entries of the source, which are not always exact repeats. Equal entries are not always repeated.

Molecular target: human IL-2 receptor αβγ trimer on CHO-K1 cells (CHO-K1 hIL-2R αβγ 2D6) (human) (UniProt P01589)
Assay: FACS on CHO-K1 hIL-2R αβγ 2D6 cells

Sequence of UniProt P01589 (P01589 22-272 limits assumed, chain 1 of 3): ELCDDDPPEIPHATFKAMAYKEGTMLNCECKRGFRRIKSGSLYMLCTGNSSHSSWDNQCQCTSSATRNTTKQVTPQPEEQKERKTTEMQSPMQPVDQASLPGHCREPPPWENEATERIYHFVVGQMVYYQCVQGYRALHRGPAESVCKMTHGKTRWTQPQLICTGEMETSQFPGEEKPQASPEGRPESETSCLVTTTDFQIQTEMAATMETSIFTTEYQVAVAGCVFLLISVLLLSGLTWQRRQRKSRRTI
Sequence of UniProt P01589 (chain, as listed by the source limits assumed, chain 2 of 3): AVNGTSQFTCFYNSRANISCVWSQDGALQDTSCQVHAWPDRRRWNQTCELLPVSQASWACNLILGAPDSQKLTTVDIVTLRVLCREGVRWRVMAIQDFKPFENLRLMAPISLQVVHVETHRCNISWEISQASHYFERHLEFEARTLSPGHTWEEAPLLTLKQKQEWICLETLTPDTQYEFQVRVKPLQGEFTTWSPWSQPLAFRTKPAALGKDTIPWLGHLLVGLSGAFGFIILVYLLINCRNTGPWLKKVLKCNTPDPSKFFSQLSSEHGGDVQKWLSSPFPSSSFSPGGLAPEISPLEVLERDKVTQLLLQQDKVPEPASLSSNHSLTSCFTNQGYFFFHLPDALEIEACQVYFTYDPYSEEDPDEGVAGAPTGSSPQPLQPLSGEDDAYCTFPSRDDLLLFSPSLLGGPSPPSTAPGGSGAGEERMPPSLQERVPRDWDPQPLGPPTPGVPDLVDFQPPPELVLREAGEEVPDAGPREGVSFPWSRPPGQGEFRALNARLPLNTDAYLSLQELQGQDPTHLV
Sequence of UniProt P01589 (chain, as listed by the source limits assumed, chain 3 of 3): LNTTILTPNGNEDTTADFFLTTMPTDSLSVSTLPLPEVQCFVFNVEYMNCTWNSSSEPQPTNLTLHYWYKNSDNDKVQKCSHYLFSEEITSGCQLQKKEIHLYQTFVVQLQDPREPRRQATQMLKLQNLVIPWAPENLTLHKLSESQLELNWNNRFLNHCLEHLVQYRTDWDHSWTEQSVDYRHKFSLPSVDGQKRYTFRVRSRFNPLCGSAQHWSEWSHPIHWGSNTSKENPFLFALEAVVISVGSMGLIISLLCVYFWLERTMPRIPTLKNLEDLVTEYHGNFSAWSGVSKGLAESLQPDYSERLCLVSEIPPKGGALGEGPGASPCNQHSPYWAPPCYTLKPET

For Human IgG control (antibody), the MFI at 0.0003 nM was 146 MFI, the MFI at 0.0017 nM was 120 MFI and 140 MFI and the MFI at 0.0085 nM was 119 MFI and 145 MFI. For the same substance, the MFI at 0.0427 nM was 274 MFI and 144 MFI, the MFI at 0.2133 nM was 181 MFI and 139 MFI and the MFI at 1.0667 nM was 157 MFI and 138 MFI. The MFI at 5.3333 nM was 124 MFI and 136 MFI and the MFI at 26.667 nM was 118 MFI and 187 MFI.
